This note sets out measurements from article PMC4880445, “Structure of a Holliday junction complex reveals mechanisms governing a highly regulated DNA transaction” (eLife, 2016).

B2: bacteriophage λ integrase (Int) (enzyme)
chain: MGRRRSHERRDLPPNLYIRNNGYYCYRDPRTGKEFGLGRDRRIAITEAIQANIELFSGHKHKPLTARINSDNSVTLHSWLDRYEKILASRGIKQKTLINYMSKIKAIRRGLPDAPLEDITTKEIAAMLNGYIDEGKAASAKLIRSTLSDAFREAIAEGHITTNHVAATRAAKSEVRRSRLTADEYLKIYQAAESSPCWLRLAMELAVVTGQRVGDLCEMKWSDIVDGYLYVEQSKTGVKIAIPTALHIDALGISMKETLDKCKEILGGETIIASTRREPLSSGTVSRYFMRARKASGLSFEGDPPTFHELRSLSARLYEKQISDKFAQHLLGHKSDTMASQYRDDRGREWDKIEIK
notes: Integrase (Int) of bacteriophage λ, tyrosine recombinase; The model holds the NTD (residues 1-55), the NTD-CB linker (56-74) and the CB and catalytic domains (75-356); The NTD of Int-C is not in the model; also called site-specific recombinase; Int-B

For series [1], the target named is B2. Description: cryo-EM structure; excisive Holliday junction complex trapped by in vitro recombination of attL and attR (150 nM IHF, 350 nM Xis, 350 nM Int, 25 mM HEPES pH 7.5, room temperature); crosslinked with 0.0035% glutaraldehyde; purified on sucrose gradients; single particle map at about 11 Å; model built by fitting known crystal and NMR structures into the density. The conditions noted are these: both partners purified.

Series [2] concerns the molecule itself. Described as above.

B1: bacteriophage λ Xis protein (natural protein, UniProt P03699 1-72, looked up)
chain: MYLTLQEWNARQRRPRSLETVRRWVRECRIFPPPVKDGREYLFHESAVKVDLNRPVTGGLLKRIRNGKKAKS
notes: Virally encoded accessory DNA-bending protein Xis of bacteriophage λ; The 18 C-terminal residues are missing from the model, as in the Xis-DNA crystal structures; also called Xis1.5
Turning to B1, the binding result in series [1] is “binds”.

With B2, the “stoichiometry N” value in series [2] was 4.
